Measured values published in article PMC6085347, “Structural basis for reactivating the mutant TERT promoter by cooperative binding of p52 and ETS1” (Nature Communications, 2018).
Blank lines part the entries; values can stand above or below the binder they belong to.

Tests used:
[1] = molecular target: T1, Flag-tagged ETS1_(331–441), P14921; assay: FLAG pull-down, band densitometry; conditions: chain shown with the change;; parent: est. 1.0; read off a plot
T1 chain: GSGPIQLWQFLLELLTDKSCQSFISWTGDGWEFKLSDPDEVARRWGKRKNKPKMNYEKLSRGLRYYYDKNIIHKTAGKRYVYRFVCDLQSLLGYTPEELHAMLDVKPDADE

ETS1_(331–441), P14921 = molecular target: T2, ETS1_(331–441), P14921; assay: ITC
T2 chain: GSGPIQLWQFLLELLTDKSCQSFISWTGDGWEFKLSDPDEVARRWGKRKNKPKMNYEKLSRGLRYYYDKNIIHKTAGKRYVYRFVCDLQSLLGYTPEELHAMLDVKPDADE

ETS1_(331–441) [2] = molecular target: T3, ETS1_(331–441) (human, UniProt P14921 331-441); assay: ITC; 8 °C; 25 mM Tris-HCl pH 7.5, 200 mM NaCl, 3 mM TCEP; 20 μM ETS1 fragment in the cell titrated with 200 μM p52-RHD in the syringe; single-site model
T3 chain: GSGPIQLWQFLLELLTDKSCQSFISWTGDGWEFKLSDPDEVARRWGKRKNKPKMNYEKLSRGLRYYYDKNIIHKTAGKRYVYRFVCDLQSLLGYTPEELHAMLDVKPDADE

ETS1_(331–441) [3] = molecular target: T3, ETS1_(331–441); assay: ITC
ETS1_(296–441) [4] = molecular target: T4, ETS1_(296–441) (human, UniProt P14921 296-441); assay: ITC; 8 °C; 25 mM Tris-HCl pH 7.5, 200 mM NaCl, 3 mM TCEP; 20 μM ETS1 fragment in the cell titrated with 200 μM p52-RHD in the syringe; single-site model
T4 chain: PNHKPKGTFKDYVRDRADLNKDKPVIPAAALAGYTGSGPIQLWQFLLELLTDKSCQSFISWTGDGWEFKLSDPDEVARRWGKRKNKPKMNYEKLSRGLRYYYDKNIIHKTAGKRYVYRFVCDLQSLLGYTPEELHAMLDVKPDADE

[5] = molecular target: the molecule itself; assay: crystal structure; p52-RHD, ETS1_(331–441) and a 15 bp -146C>T TERT promoter DNA mixed 1:1:1; crystals at 18 °C in 100 mM HEPES pH 7.0, 2.0 M ammonium sulfate
ETS1_(296–441) [6] = molecular target: T4, ETS1_(296–441); assay: ITC
ETS1_(296–441) [7] = molecular target: T4, ETS1_(296–441); assay: ITC
[8] = molecular target: the molecule itself; assay: cross-linking + native gel or EMSA; cysteine mutants mixed at a molar ratio of 1:2, DTT removed, disulfide cross-linking with 30 µM CuCl2 and 100 µM phenanthroline for 1 h at 25 °C; 4–16% gradient blue native PAGE; reversed with 20 mM DTT
ETS1 296-441;p52-RHD = molecular target: T5, ETS1 296-441;p52-RHD (human;human, UniProt P14921;Q00653 296-441;35-329, |); assay: ITC; 100 uM p52-RHD in cell; no enhancement over p52-DSD; ITC: 25 mM Tris-HCl pH 7.5, 200 mM NaCl, 3 mM TCEP, 8 °C. EMSA: 20 mM Tris-HCl pH 7.5, 150 mM NaCl, 4 °C, 1 h, 4-16% native PAGE; conditions: protein: recombinant;recombinant; tags: GST removed (PreScission, pGEX-6P-1);GST removed (PreScission, pGEX-6P-1); copies: 1;2; 5' overhang 1 nt at each end, 25 bp
T5 sequence 1: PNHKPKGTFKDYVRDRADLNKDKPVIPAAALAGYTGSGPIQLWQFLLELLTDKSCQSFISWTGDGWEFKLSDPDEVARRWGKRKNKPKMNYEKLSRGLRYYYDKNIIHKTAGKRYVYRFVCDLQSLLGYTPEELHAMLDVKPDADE
T5 sequence 2: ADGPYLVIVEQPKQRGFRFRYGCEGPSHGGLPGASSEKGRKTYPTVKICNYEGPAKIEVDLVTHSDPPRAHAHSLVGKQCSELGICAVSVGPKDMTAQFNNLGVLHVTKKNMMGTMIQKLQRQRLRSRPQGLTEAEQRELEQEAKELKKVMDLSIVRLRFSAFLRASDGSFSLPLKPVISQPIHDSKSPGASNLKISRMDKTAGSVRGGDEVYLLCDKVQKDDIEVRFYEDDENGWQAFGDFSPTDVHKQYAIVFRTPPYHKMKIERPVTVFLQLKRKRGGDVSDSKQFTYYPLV

ETS1 296-441;p52-DSD [9] = molecular target: T6, ETS1 296-441;p52-DSD (human;human, UniProt P14921;Q00653 296-441;226-328, |); assay: ITC; 100 uM p52-DSD in cell; greater affinity than ETS1 alone; ITC: 25 mM Tris-HCl pH 7.5, 200 mM NaCl, 3 mM TCEP, 8 °C. EMSA: 20 mM Tris-HCl pH 7.5, 150 mM NaCl, 4 °C, 1 h, 4-16% native PAGE; conditions: protein: recombinant;recombinant; tags: GST removed (PreScission, pGEX-6P-1);GST removed (PreScission, pGEX-6P-1); copies: 1;2; 5' overhang 1 nt at each end, 25 bp
T6 sequence 1: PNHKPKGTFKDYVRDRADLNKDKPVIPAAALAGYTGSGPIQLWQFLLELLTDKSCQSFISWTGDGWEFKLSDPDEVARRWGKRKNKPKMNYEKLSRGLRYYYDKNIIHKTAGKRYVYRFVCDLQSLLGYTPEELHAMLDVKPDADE
T6 sequence 2: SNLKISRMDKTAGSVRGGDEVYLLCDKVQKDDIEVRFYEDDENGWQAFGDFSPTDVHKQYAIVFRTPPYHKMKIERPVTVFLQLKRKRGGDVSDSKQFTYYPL

ETS1 296-441;p52-DSD [10] = molecular target: T6, ETS1 296-441;p52-DSD; assay: ITC; 100 uM p52-DSD in cell; flanks make no contribution to affinity; ITC: 25 mM Tris-HCl pH 7.5, 200 mM NaCl, 3 mM TCEP, 8 °C. EMSA: 20 mM Tris-HCl pH 7.5, 150 mM NaCl, 4 °C, 1 h, 4-16% native PAGE; conditions: protein: recombinant;recombinant; tags: GST removed (PreScission, pGEX-6P-1);GST removed (PreScission, pGEX-6P-1); copies: 1;2; blunt
p52-RHD;ETS1 331-441 = molecular target: T7, p52-RHD;ETS1 331-441 (human;human, UniProt Q00653;P14921 35-329;331-441, |); assay: X-ray crystallography; ETS1 contacts the DNA; p52-DBSD disordered and p52-DSD bound to ETS1; ITC: 25 mM Tris-HCl pH 7.5, 200 mM NaCl, 3 mM TCEP, 8 °C. EMSA: 20 mM Tris-HCl pH 7.5, 150 mM NaCl, 4 °C, 1 h, 4-16% native PAGE; conditions: protein: recombinant;recombinant; tags: GST removed (PreScission, pGEX-6P-1);GST removed (PreScission, pGEX-6P-1); chain copies: 2;1; 5' overhang 1 nt at each end, 15 bp
T7 sequence 1: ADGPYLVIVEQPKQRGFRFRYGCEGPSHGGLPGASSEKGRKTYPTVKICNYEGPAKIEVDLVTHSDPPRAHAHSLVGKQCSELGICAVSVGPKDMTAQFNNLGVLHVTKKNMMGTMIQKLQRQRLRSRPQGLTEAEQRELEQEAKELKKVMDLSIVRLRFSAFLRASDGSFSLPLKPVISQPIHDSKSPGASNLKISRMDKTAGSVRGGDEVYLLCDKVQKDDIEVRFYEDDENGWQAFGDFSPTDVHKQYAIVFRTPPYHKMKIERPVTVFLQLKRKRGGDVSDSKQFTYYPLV
T7 sequence 2: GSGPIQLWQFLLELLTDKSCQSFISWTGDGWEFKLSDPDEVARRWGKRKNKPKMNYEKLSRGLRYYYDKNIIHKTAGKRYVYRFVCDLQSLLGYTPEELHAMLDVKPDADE

B1: p52-RHD (residues 35–329), Q00653 R241A; M297A; K298A (protein)
chain: ADGPYLVIVEQPKQRGFRFRYGCEGPSHGGLPGASSEKGRKTYPTVKICNYEGPAKIEVDLVTHSDPPRAHAHSLVGKQCSELGICAVSVGPKDMTAQFNNLGVLHVTKKNMMGTMIQKLQRQRLRSRPQGLTEAEQRELEQEAKELKKVMDLSIVRLRFSAFLRASDGSFSLPLKPVISQPIHDSKSPGASNLKISRMDKTAGSVAGGDEVYLLCDKVQKDDIEVRFYEDDENGWQAFGDFSPTDVHKQYAIVFRTPPYHKAAIERPVTVFLQLKRKRGGDVSDSKQFTYYPLV
ratio to parent [1]: 0.26 | Kd (ETS1_(331–441), P14921; chain shown with the change): 33.2 µM | Ka (ETS1_(331–441), P14921; chain shown with the change;, parent: 1.48E5 ± 1.07E4): 30100 M⁻¹

B3: p52-RHD RMK>A (domain or fragment)
chain: ADGPYLVIVEQPKQRGFRFRYGCEGPSHGGLPGASSEKGRKTYPTVKICNYEGPAKIEVDLVTHSDPPRAHAHSLVGKQCSELGICAVSVGPKDMTAQFNNLGVLHVTKKNMMGTMIQKLQRQRLRSRPQGLTEAEQRELEQEAKELKKVMDLSIVRLRFSAFLRASDGSFSLPLKPVISQPIHDSKSPGASNLKISRMDKTAGSVAGGDEVYLLCDKVQKDDIEVRFYEDDENGWQAFGDFSPTDVHKQYAIVFRTPPYHKAAIERPVTVFLQLKRKRGGDVSDSKQFTYYPLV
fold reduction of binding against WT p52 (ETS1_(331–441) [2]): 5 fold

B7: p52-RHD (R241C, C57S, and C83S) (domain or fragment, human, UniProt Q00653 35-329, looked up)
chain: ADGPYLVIVEQPKQRGFRFRYGSEGPSHGGLPGASSEKGRKTYPTVKISNYEGPAKIEVDLVTHSDPPRAHAHSLVGKQCSELGICAVSVGPKDMTAQFNNLGVLHVTKKNMMGTMIQKLQRQRLRSRPQGLTEAEQRELEQEAKELKKVMDLSIVRLRFSAFLRASDGSFSLPLKPVISQPIHDSKSPGASNLKISRMDKTAGSVCGGDEVYLLCDKVQKDDIEVRFYEDDENGWQAFGDFSPTDVHKQYAIVFRTPPYHKMKIERPVTVFLQLKRKRGGDVSDSKQFTYYPLV
modifications: disulfide from Cys241 to Cys343 of ETS1_(331–441) (E343C and C350S) after cross-linking with CuCl2 and phenanthroline
binding result [8]: binds

B8: 25 bp -146C>T TERT promoter DNA (dsDNA)
DNA 1: GTCCCGACCCCTTCCGGGTCCCCGGC
DNA 2: CGCCGGGGACCCGGAAGGGGTCGGGA
binding result (ETS1 296-441;p52-RHD): binds | binding result (ETS1 296-441;p52-DSD [9]): binds

B9: 10 bp -146C>T TERT promoter DNA (dsDNA)
DNA 1: CCCTTCCGGG
DNA 2: CCCGGAAGGG
binding result (ETS1 296-441;p52-DSD [10]): binds

B10: 15 bp -146C>T TERT promoter DNA (dsDNA)
DNA 1: GCCCTTCCGGGTCCCC
DNA 2: CGGGGACCCGGAAGGG
binding result (p52-RHD;ETS1 331-441): binds

Continued, in another order:

ratio to parent [1]: 0.69
B2: p52-RHD (residues 35–329), Q00653 K298A (protein)
chain: ADGPYLVIVEQPKQRGFRFRYGCEGPSHGGLPGASSEKGRKTYPTVKICNYEGPAKIEVDLVTHSDPPRAHAHSLVGKQCSELGICAVSVGPKDMTAQFNNLGVLHVTKKNMMGTMIQKLQRQRLRSRPQGLTEAEQRELEQEAKELKKVMDLSIVRLRFSAFLRASDGSFSLPLKPVISQPIHDSKSPGASNLKISRMDKTAGSVRGGDEVYLLCDKVQKDDIEVRFYEDDENGWQAFGDFSPTDVHKQYAIVFRTPPYHKMAIERPVTVFLQLKRKRGGDVSDSKQFTYYPLV

ratio to parent [1]: 0.72
B4: p52-RHD (residues 35–329), Q00653 M297A (protein)
chain: ADGPYLVIVEQPKQRGFRFRYGCEGPSHGGLPGASSEKGRKTYPTVKICNYEGPAKIEVDLVTHSDPPRAHAHSLVGKQCSELGICAVSVGPKDMTAQFNNLGVLHVTKKNMMGTMIQKLQRQRLRSRPQGLTEAEQRELEQEAKELKKVMDLSIVRLRFSAFLRASDGSFSLPLKPVISQPIHDSKSPGASNLKISRMDKTAGSVRGGDEVYLLCDKVQKDDIEVRFYEDDENGWQAFGDFSPTDVHKQYAIVFRTPPYHKAKIERPVTVFLQLKRKRGGDVSDSKQFTYYPLV

ratio to parent [1]: 0.51
B5: p52-RHD (residues 35–329), Q00653 R241A (protein)
chain: ADGPYLVIVEQPKQRGFRFRYGCEGPSHGGLPGASSEKGRKTYPTVKICNYEGPAKIEVDLVTHSDPPRAHAHSLVGKQCSELGICAVSVGPKDMTAQFNNLGVLHVTKKNMMGTMIQKLQRQRLRSRPQGLTEAEQRELEQEAKELKKVMDLSIVRLRFSAFLRASDGSFSLPLKPVISQPIHDSKSPGASNLKISRMDKTAGSVAGGDEVYLLCDKVQKDDIEVRFYEDDENGWQAFGDFSPTDVHKQYAIVFRTPPYHKMKIERPVTVFLQLKRKRGGDVSDSKQFTYYPLV

Ka (ETS1_(331–441) [3]): 148000 M⁻¹ | Kd (ETS1_(331–441) [2]): 6.76 µM | fold reduction of binding against ETS1 (331–441) (ETS1_(296–441) [4]): 3 fold | Ka (ETS1_(296–441) [6]): 52400 M⁻¹ | Kd (ETS1_(296–441) [7]): 19.1 µM
B6: p52-RHD (residues 35–329) (domain or fragment, human, UniProt Q00653 35-329, looked up)
chain: ADGPYLVIVEQPKQRGFRFRYGCEGPSHGGLPGASSEKGRKTYPTVKICNYEGPAKIEVDLVTHSDPPRAHAHSLVGKQCSELGICAVSVGPKDMTAQFNNLGVLHVTKKNMMGTMIQKLQRQRLRSRPQGLTEAEQRELEQEAKELKKVMDLSIVRLRFSAFLRASDGSFSLPLKPVISQPIHDSKSPGASNLKISRMDKTAGSVRGGDEVYLLCDKVQKDDIEVRFYEDDENGWQAFGDFSPTDVHKQYAIVFRTPPYHKMKIERPVTVFLQLKRKRGGDVSDSKQFTYYPLV
notes: In the crystal only residues 226-328 (p52-DSD) are ordered; two p52-DSD form a homodimer through a crystallographic 2-fold axis; also called WT p52
binding result [5]: binds
